Data as given in paper PMC5149022, “A ^99mTc-tricine-HYNIC-labeled Peptide Targeting the Melanocortin-1 Receptor for Melanoma Imaging” (Iranian Journal of Pharmaceutical Research : IJPR, 2016).
Bridge positions count the residues as written; N and C are the ends. Square brackets hold non-standard residues; d marks the D form. Peptide text beside a SMILES is read from it. * marks the point of attachment. HYNIC = NNc1ccc(C(=O)*)cn1; Nle = CCCC[C@H](N)C(=O)O; GABA = NCCCC(=O)O

Legend:
[1] = Protein binding by precipitation method; type: in vitro ADME
Procedure: Protein binding of radiolabeled peptide was measured by precipitationmethod resulting 37%forradioconjugate. Plasma proteins binding could be due to transchelation, which is possible with exchange reactions among co-ligands and the possible action of HYNIC as a mono- or bi-dentated ligand complexing ^99mTc.

[2] = Stability of radiolabeled peptide in aqueous solution; type: physicochemical
Procedure: (§1) The stability of radiolabeled peptide in aqueous solution was evaluated by incubation of the reaction mixture at ambient temperature (25 °C) up to 24 h. Stability in human serum at 37 °C was tested in parallel after adding 100 μL of reaction mixture to 1mL of fresh human serum. The incubation mixtures were sampled at 1,6 and 24 h time points. Serum samples (100–200 μL) were treated with ethanol (200–400 μL) and centrifuged (4000 g, 5 min, 4 °C) to precipitate the serum proteins.20–100 μL aliquots from the supernatant were separated to assess the degradation of ^99mTc labeled peptide by RP-HPLC. 100 μL aliquots from the 25 °C incubated mixture were passed from a 0.22 μ filter to eliminate the probable ^99mTc colloids and then, 5–20 μL of filtrate were analyzed by RP-HPLC as well.

[3] = tested on: B16/F10 tumor (MC1 receptor); test: Biodistribution in B16/F10 tumor bearing nude mice; type: in vivo; conditions: nude mice with B16/F10 tumor
Procedure: Animal experiments were performed in compliance with the regulations of our institution and with generally accepted guidelines governing such work.Groups of three nude mice were used in each experiment. A suspension of B16/F10 cells (1×10^7) in PBS was subcutaneously injected in the right flank of each nude mice. Seven days after inoculation, the tumors were inducted and then, ^99mTc-tricine-HYNIC-peptide (20 MBq) was injected via a femoral vein. Also a group of three animals were injected with peptide ([…]) in saline (0.9%; […]) as a co-injection with the radiopeptide (blocked animals). After 1, 4 and 24 h, the groups of mice were killed, then the organs of interest were excised, weighed and counted in the gamma counter. The percentage of the injected dose per gram (% ID/g) was calculated for each tissue. At 4 h after injection, accumulation of the tracer in tumor area was also assessed by planar scintigraphy under ether anesthesia.

[4] = Stability of radiolabeled peptide in human serum; type: in vitro ADME; conditions: fresh human serum, 37 °C, RP-HPLC with gamma detector
Procedure: as §1

## CCCC[C@H](NC(=O)CCCNC(=O)c1ccc(NN)nc1)C(=O)N[C@H]1CC(=O)NCCCC[C@@H](C(N)=O)NC(=O)CNC(=O)[C@H](Cc2c[nH]c3ccccc23)NC(=O)[C@H](CCCNC(=N)N)NC(=O)[C@@H](Cc2ccccc2)NC(=O)[C@H](Cc2c[nH]cn2)NC1=O [^99mTc-tricine-HYNIC-peptide, ^99mTc-tricine-HYNIC-GABANle-CycMSHhept, metal not drawn] ({HYNIC-GABA}-[Nle]DH[dF]RWGK-NH2; lactam 2-8)
[1]
  protein binding: 37%
[2]; reaction mixture, ambient temperature (25 °C), 24 h, RP-HPLC with gamma detector
  labeling yield remaining after incubation in aqueous solution: 75%
[2]; reaction mixture, ambient temperature (25 °C), up to 6 h, 0.22 μ filtered, RP-HPLC with gamma detector
  stability in aqueous solution (release of 99mTcO4- or peptide degradation): no significant release of ^99mTcO4^− or peptide degradation
[2]; up to 6 h post labeling
  radiochemical stability: excellent radiochemical stability
[3]; 20 MBq via femoral vein, 1 h after injection, n = 3
  kidneys uptake: 7.38 ± 0.56 % ID/g
[3]; 20 MBq via femoral vein, 4 h, n = 3
  tumor uptake: 4.51 ± 0.11 % ID/g
[3]; 1 h, n = 3
  blood uptake: 1.26 ± 0.13 % ID/g
  intestines uptake: 0.65±0.05 % ID/g
  liver uptake: 1.48 ± 0.08 % ID/g
[3]; co-injection of cold peptide, time not stated
  tumor uptake, blocked group: 2.33 % ID/g
[3]; time not stated
  liver uptake: lower than 2.0 % ID/g
[4]; 24 h
  labeling yield remaining after incubation in human serum: 75%
[4]; 100 μL reaction mixture in 1 mL serum, up to 6 h, ethanol precipitation
  stability in human serum (release of 99mTcO4- or peptide degradation): no significant release of ^99mTcO4^− or peptide degradation
